Key:
RPL24 = RPL24 (human, UniProt P83731 1-157); assay: co-IP/MS, anti-FLAG IP of N-FLAG B3GNT2 cell lysate
Description: (§1) Cells were plated in 10-cm cell culture dishes and grown to 60-80% confluency. For each condition, two biological replicates were harvested for co-IP. Cells were washed with PBS and 4 mL of lysis buffer (20 mM HEPES, 1% Triton X-100, 150 mM NaCl, 1 mM EDTA, and 10% glycerol) containing protease inhibitor cocktail was added. Cells were scraped and lysate was incubated at 4° C. under rotary agitation for 1 h. Lysate was centrifuged at 14,000×g for 10 min at 4° C. Supernatant was transferred to a new tube and an aliquot was taken as the input. […] For Western blots, 10 μg/mL Chicken Anti-FLAG (Aves labs ET-DY100) and IgY control (R&D Systems AB-101-C) antibodies were biotinylated (Thermo Fisher Scientific 90407) and added to the respective conditions. Lysates with antibodies were incubated at 4° C. under rotary agitation overnight. For each mL of lysate, 50 μL of Pierce Protein A/G Magnetic Beads (Mass spectrometry; Thermo Fisher Scientific 88803) or Pierce Streptavidin Magnetic Beads (Western blot; Thermo Fisher Scientific 88817) was washed twice with lysis buffer. Lysates with antibodies were added to the beads and incubated at 4° C. under rotary agitation for 4 h. Beads were washed with lysis buffer 3 times and resuspended in lysis buffer for storage.
(§2) Magnetic beads were resuspended in 100 mM Tris pH 7.8, reduced, alkylated and digested with trypsin at 37° ° C. overnight. This solution was subjected to solid phase extraction to concentrate the peptides and remove unwanted reagents followed by injection onto a Shimadzu HPLC with fraction collector. Eight fractions were collected and after concentration were injected on a Waters NanoAcquity HPLC equipped with a self-packed Aeris 3 μm C18 analytical column 0.075 mm by 20 cm, (Phenomenex). Peptides were eluted using standard reverse-phase gradients. The effluent from the column was analyzed using a Thermo Orbitrap Elite mass spectrometer (nanospray configuration) operated in a data dependent manner for 54 minutes. The resulting fragmentation spectra were correlated against the known database using Proteome Discover 1.4 (Thermo Fisher Scientific).

RPS9 = RPS9 (human, UniProt P46781 2-194); assay: as above
Description: as §1, §2

RPS15 = RPS15 (human, UniProt P62841 2-145); assay: as above
Description: as §1, §2

RPL14 = RPL14 (human, UniProt P50914 2-215); assay: as above
Description: as §1, §2

RPS3A = RPS3A (human, UniProt P61247 2-264); assay: as above
Description: as §1, §2

PRDX2 = biological target: T1, PRDX2 (human, UniProt P32119 2-198); assay: as above
T1 construct: also called NP_005800.3
T1 sequence (looked up): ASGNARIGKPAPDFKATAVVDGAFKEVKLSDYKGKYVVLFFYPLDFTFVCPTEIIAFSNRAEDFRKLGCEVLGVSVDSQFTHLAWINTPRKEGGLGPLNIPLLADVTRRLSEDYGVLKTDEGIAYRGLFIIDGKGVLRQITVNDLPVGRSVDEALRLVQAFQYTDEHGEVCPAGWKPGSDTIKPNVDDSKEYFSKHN
Description: as §1, §2

PRDX1 = biological target: T2, PRDX1 (human, UniProt Q06830 2-199); assay: as above
T2 construct: also called NP_859048.1
T2 sequence (looked up): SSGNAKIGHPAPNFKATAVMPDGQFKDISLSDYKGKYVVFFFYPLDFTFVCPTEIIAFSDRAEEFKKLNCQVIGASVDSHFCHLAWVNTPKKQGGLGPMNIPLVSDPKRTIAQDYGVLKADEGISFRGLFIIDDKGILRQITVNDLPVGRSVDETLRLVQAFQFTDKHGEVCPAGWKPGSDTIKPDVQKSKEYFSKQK
Description: as §1, §2

RPS5 = RPS5 (human, UniProt P46782 1-204); assay: as above
Description: as §1, §2

RPL30 = RPL30 (human, UniProt P62888 1-115); assay: as above
Description: as §1, §2

FKBP10 = biological target: T3, FKBP10 (human, UniProt Q96AY3 27-582); assay: as above
T3 construct: also called NP_068758.3 (+1)
Description: as §1, §2

LRP1 = biological target: T4, LRP1 (human, UniProt Q07954 20-4544, limits assumed); assay: co-IP/MS, anti-FLAG IP of C-FLAG B3GNT2 cell lysate
T4 construct: also called NP_002323.2 (+1)
Description: as §1, §2

PCBP1 = biological target: T5, PCBP1 (human, UniProt Q15365 1-356); assay: as above
T5 construct: also called NP_006187.2
Description: as §1, §2

TGM3 = biological target: T6, TGM3 (human, UniProt Q08188 2-693, limits assumed); assay: as above
T6 construct: also called NP_003236.3
T6 sequence (looked up): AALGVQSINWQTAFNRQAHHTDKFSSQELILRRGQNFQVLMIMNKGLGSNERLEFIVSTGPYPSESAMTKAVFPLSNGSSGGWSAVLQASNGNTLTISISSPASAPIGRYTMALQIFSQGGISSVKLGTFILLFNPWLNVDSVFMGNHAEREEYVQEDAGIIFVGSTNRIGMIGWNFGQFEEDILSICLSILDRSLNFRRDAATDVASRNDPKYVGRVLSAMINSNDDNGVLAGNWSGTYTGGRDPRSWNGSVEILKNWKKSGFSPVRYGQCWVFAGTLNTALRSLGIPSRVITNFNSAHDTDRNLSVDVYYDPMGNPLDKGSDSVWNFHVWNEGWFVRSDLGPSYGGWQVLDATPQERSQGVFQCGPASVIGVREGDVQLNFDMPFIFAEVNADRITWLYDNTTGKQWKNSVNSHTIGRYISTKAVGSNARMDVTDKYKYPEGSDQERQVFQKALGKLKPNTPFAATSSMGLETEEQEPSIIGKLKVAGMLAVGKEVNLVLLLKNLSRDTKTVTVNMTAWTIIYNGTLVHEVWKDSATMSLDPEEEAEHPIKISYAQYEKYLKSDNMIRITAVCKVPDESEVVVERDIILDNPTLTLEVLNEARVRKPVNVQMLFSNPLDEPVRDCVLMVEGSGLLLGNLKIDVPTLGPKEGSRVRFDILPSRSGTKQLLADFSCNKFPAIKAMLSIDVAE
Description: as §1, §2

CAPZA1 = CAPZA1 (human, UniProt P52907 2-286); assay: as above
Description: as §1, §2

RPS12 = RPS12 (human, UniProt P25398 2-132); assay: as above
Description: as §1, §2

PIP = biological target: T7, PIP (human, UniProt P12273 29-146); assay: as above
T7 construct: also called NP_002643.1
T7 sequence (looked up): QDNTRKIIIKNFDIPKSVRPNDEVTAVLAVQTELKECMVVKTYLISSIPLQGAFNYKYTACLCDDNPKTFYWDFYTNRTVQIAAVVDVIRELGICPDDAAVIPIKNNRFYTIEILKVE
Description: as §1, §2

RPS7 = RPS7 (human, UniProt P62081 1-194); assay: as above
Description: as §1, §2

ERP29 = biological target: T8, ERP29 (human, UniProt P30040 33-261); assay: anti-FLAG co-IP from lysate of C-FLAG B3GNT2 cells, mass spectrometry
T8 construct: also called NP_006808.1
Description: as §1, §2

PSMC2 = biological target: T9, PSMC2 (human, UniProt P35998 2-433); assay: as above
T9 construct: also called NP_002794.1
T9 sequence (looked up): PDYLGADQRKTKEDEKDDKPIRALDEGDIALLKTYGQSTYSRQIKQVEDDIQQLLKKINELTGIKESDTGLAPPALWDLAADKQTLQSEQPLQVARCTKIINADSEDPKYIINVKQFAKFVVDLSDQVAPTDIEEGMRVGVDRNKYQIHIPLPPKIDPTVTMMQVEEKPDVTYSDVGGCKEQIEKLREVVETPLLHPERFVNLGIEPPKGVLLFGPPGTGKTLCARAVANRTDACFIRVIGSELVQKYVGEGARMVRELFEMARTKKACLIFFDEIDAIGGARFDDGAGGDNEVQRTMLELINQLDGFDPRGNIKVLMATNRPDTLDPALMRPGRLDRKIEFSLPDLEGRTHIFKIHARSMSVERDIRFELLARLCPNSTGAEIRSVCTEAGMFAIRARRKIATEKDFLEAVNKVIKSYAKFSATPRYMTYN
Description: as §1, §2

PSMA5 = biological target: T10, PSMA5 (human, UniProt P28066 1-241); assay: as above
T10 construct: also called NP_002781.2
Description: as §1, §2

PSMB4 = biological target: T11, PSMB4 (human, UniProt P28070 46-264); assay: as above
T11 construct: also called NP_002787.2
Description: as §1, §2

T10 sequence (P28066 whole entry): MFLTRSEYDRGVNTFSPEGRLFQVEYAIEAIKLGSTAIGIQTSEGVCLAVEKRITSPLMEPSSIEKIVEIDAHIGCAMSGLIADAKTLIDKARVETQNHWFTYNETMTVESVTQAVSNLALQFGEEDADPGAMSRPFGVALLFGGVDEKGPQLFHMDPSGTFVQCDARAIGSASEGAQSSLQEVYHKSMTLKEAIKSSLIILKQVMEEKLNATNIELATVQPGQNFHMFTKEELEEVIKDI
T5 sequence (Q15365 whole entry): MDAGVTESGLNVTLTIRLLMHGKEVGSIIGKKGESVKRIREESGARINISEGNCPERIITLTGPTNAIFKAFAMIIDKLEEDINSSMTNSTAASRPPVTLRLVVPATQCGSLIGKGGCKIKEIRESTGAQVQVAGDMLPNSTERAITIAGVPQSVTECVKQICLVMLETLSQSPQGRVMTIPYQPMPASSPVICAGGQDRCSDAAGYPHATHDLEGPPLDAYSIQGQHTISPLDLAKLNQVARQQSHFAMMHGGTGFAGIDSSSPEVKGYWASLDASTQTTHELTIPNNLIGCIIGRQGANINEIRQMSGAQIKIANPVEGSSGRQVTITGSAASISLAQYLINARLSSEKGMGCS
T11 sequence (P28070 46-264 limits assumed): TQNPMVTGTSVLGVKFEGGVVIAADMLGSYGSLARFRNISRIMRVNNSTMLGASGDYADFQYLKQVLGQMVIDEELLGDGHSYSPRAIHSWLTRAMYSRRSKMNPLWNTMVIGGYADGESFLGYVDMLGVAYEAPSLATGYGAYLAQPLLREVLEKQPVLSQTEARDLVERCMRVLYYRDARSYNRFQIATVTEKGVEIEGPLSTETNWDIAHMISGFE
T3 sequence (Q96AY3 27-582 limits assumed): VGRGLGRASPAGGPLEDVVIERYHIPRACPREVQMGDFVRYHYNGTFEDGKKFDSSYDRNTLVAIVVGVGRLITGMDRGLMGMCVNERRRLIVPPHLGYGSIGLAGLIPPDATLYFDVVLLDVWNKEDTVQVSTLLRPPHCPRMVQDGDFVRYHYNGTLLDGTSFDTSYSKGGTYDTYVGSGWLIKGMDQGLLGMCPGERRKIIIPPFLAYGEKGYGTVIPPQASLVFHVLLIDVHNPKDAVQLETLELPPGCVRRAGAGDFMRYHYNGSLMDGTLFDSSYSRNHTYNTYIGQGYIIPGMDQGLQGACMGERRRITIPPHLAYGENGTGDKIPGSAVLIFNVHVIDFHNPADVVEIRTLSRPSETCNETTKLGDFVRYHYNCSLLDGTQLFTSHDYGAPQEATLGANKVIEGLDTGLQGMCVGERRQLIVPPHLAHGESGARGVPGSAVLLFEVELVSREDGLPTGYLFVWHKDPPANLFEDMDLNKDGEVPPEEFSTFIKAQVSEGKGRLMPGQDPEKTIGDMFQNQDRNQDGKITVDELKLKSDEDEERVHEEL

B1: N-terminal FLAG tagged B3GNT2 (enzyme, human, UniProt Q9NY97 1-397, looked up)
chain: MSVGRRRIKLLGILMMANVFIYFIMEVSKSSSQEKNGKGEVIIPKEKFWKISTPPEAYWNREQEKLNRQYNPILSMLTNQTGEAGRLSNISHLNYCEPDLRVTSVVTGFNNLPDRFKDFLLYLRCRNYSLLIDQPDKCAKKPFLLLAIKSLTPHFARRQAIRESWGQESNAGNQTVVRVFLLGQTPPEDNHPDLSDMLKFESEKHQDILMWNYRDTFFNLSLKEVLFLRWVSTSCPDTEFVFKGDDDVFVNTHHILNYLNSLSKTKAKDLFIGDVIHNAGPHRDKKLKYYIPEVVYSGLYPPYAGGGGFLYSGHLALRLYHITDQVHLYPIDDVYTGMCLQKLGLVPEKHKGFRTFDIEEKNKNNICSYVDLMLVHSRKPQEMIDIWSQLQSAHLKC
notes: FLAG-tagged ORF overexpressed in cells; bait of the co-IP, pulled down with mouse anti-FLAG; also called N-FLAG B3GNT2; N-term FLAG; not shown: N-terminal FLAG tag
RPL24
  co-IP mass spectrometry count: 4
RPS9
  co-IP mass spectrometry count: 2
RPS15
  co-IP mass spectrometry count: 7
RPL14
  co-IP mass spectrometry count: 11
RPS3A
  co-IP mass spectrometry count: 12
PRDX2
  co-IP mass spectrometry count: 9
PRDX1
  co-IP mass spectrometry count: 8
RPS5
  co-IP mass spectrometry count: 4
RPL30
  co-IP mass spectrometry count: 8
FKBP10
  co-IP mass spectrometry count: 0

B2: C-terminal FLAG tagged B3GNT2 (enzyme, human, UniProt Q9NY97 1-397, looked up)
chain: MSVGRRRIKLLGILMMANVFIYFIMEVSKSSSQEKNGKGEVIIPKEKFWKISTPPEAYWNREQEKLNRQYNPILSMLTNQTGEAGRLSNISHLNYCEPDLRVTSVVTGFNNLPDRFKDFLLYLRCRNYSLLIDQPDKCAKKPFLLLAIKSLTPHFARRQAIRESWGQESNAGNQTVVRVFLLGQTPPEDNHPDLSDMLKFESEKHQDILMWNYRDTFFNLSLKEVLFLRWVSTSCPDTEFVFKGDDDVFVNTHHILNYLNSLSKTKAKDLFIGDVIHNAGPHRDKKLKYYIPEVVYSGLYPPYAGGGGFLYSGHLALRLYHITDQVHLYPIDDVYTGMCLQKLGLVPEKHKGFRTFDIEEKNKNNICSYVDLMLVHSRKPQEMIDIWSQLQSAHLKC
notes: FLAG-tagged ORF overexpressed in cells; bait of the co-IP, pulled down with mouse anti-FLAG; also called C-FLAG B3GNT2; C-term flag; not shown: C-terminal FLAG tag
LRP1
  co-IP mass spectrometry count: 0
PCBP1
  co-IP mass spectrometry count: 4
TGM3
  co-IP mass spectrometry count: 5
CAPZA1
  co-IP mass spectrometry count: 0
RPS12
  co-IP mass spectrometry count: 8
PIP
  co-IP mass spectrometry count: 3
RPS7
  co-IP mass spectrometry count: 8

B3: C-terminal FLAG tagged B3GNT2 (enzyme, human, UniProt Q9NY97 1-397, looked up)
chain: MSVGRRRIKLLGILMMANVFIYFIMEVSKSSSQEKNGKGEVIIPKEKFWKISTPPEAYWNREQEKLNRQYNPILSMLTNQTGEAGRLSNISHLNYCEPDLRVTSVVTGFNNLPDRFKDFLLYLRCRNYSLLIDQPDKCAKKPFLLLAIKSLTPHFARRQAIRESWGQESNAGNQTVVRVFLLGQTPPEDNHPDLSDMLKFESEKHQDILMWNYRDTFFNLSLKEVLFLRWVSTSCPDTEFVFKGDDDVFVNTHHILNYLNSLSKTKAKDLFIGDVIHNAGPHRDKKLKYYIPEVVYSGLYPPYAGGGGFLYSGHLALRLYHITDQVHLYPIDDVYTGMCLQKLGLVPEKHKGFRTFDIEEKNKNNICSYVDLMLVHSRKPQEMIDIWSQLQSAHLKC
notes: Bait of the co-IP; pulled down from cell lysate with mouse anti-FLAG antibody; also called C-FLAG B3GNT2; C-term flag; not shown: C-terminal FLAG tag
ERP29
  co-IP mass spectrometry count: 0
PSMC2
  co-IP mass spectrometry count: 0
PSMA5
  co-IP mass spectrometry count: 0
PSMB4
  co-IP mass spectrometry count: 0

From patent US20240261333A1 (published 2024)
